Measured values reported in patent US20240116985A1 (published 2024).
Starred links: 1 amine or outer side, 2 acyl side, 3 side chain; linkers in the order of their positions; H or OH if unused. Positions of bridges follow the written chain, without caps; N, C: chain ends. Non-standard residues stand in square brackets, D forms with d. Primed or numbered codes have the meaning given here. No end group written: not given here. *: point of attachment. PyrS2″ = (S)-3-amino-1-((pent-4-en-1-yloxy)carbonyl)pyrrolidine-3-carboxylic acid (stapling residue), C=CCCCOC(=O)N1CC[C@@](N[*:1])(C(=O)[*:2])C1; PyrS3″ = (S)-3-amino-1-((hex-5-en-1-yloxy)carbonyl)pyrrolidine-3-carboxylic acid (stapling residue), C=CCCCCOC(=O)N1CC[C@@](N[*:1])(C(=O)[*:2])C1; B5(4) = 2,2-bis(4-pentenyl)glycine = 2-amino-2-(pent-4-en-1-yl)hept-6-enoic acid (stitching residue), C=CCCCC(CCCC=C)(N[*:1])C(=O)[*:2]; PyrS4 = (S)-3-amino-1-((hept-6-en-1-yloxy)carbonyl)pyrrolidine-3-carboxylic acid, C=CCCCCCOC(=O)N1CC[C@@](N[*:1])(C(=O)[*:2])C1; PyrS2 = (S)-3-amino-1-((pent-4-en-1-yloxy)carbonyl)pyrrolidine-3-carboxylic acid, C=CCCCOC(=O)N1CC[C@@](N[*:1])(C(=O)[*:2])C1; B5 = 2-amino-2-(pent-4-en-1-yl)hept-6-enoic acid, C=CCCCC(CCCC=C)(N[*:1])C(=O)[*:2]; B3 = 2-allyl-2-aminopent-4-enoic acid, C=CCC(CC=C)(N[*:1])C(=O)[*:2]; Phe(3-COOH) = N[C@@H](Cc1cccc(C(=O)O)c1)C(=O)O; 2F3MeF = Cc1cccc(C[C@H](N[*:1])C(=O)[*:2])c1F; Phe(2-Cl) = N[C@@H](Cc1ccccc1Cl)C(=O)O; Bta = N[C@@H](Cc1csc2ccccc12)C(=O)O; Lys(iPr) = CC(C)NCCCC[C@H](N)C(=O)O; αAllylPro = C=CC[C@@]1(C(=O)O)CCCN1; tBuAla = CC(C)(C)C[C@H](N)C(=O)O; 3Thi = N[C@@H](Cc1ccsc1)C(=O)O; Cha = N[C@@H](CC1CCCCC1)C(=O)O; PyrS2(4) = not defined here; Leu(ol) = CC(C)C[C@H](N)CO; hSer = N[C@@H](CCO)C(=O)O; Alaol = C[C@@H](CO)N*

target: T1, B-cat-Halo (beta-catenin HaloTag NanoBRET construct expressed in HEK293 cells) (UniProt P35222 1-781); assay: cell-based or functional assay
T1 sequence (looked up): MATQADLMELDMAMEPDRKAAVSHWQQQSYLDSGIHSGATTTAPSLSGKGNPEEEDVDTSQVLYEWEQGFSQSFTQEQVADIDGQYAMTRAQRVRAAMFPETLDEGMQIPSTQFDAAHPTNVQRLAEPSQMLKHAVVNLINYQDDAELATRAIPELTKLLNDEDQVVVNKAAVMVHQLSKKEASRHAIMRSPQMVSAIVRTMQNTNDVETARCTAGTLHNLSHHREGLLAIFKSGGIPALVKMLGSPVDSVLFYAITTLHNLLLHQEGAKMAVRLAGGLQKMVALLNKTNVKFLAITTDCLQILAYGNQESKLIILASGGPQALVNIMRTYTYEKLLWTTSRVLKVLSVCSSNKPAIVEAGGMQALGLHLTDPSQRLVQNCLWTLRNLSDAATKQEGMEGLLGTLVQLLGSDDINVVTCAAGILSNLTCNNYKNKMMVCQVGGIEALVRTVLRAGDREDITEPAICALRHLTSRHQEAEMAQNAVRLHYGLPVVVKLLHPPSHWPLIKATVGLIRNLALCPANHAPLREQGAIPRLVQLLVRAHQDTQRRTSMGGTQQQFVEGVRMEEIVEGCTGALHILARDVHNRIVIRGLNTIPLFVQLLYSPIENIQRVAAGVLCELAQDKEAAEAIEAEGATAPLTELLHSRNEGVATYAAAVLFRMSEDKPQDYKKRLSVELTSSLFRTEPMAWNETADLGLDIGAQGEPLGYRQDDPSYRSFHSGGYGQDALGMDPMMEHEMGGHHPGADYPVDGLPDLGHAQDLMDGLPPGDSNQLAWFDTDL

Row | Binder | NanoBRET Abs IC50
1 | Ac-[αAllylPro]D[tBuAla][B3]DDAAFL[PyrS3″][3Thi][Bta]Q-NH2 (staple 1-4, 4-11; also: olefin in each staple reduced to -CH2-CH2-) [I-2161] | > 20 µM
2 | Ac-[αAllylPro]N[Cha][B5(4)]DQ[Lys(iPr)]AFN[PyrS2″]F[Bta][hSer]-NH2 (staple 1-4, 4-11) [I-2167] | > 20 µM
3 | Ac-[αAllylPro]D[tBuAla][B3]DDAAFL[PyrS4][3Thi][Bta]Q-NH2 (staple 1-4, 4-11; also: olefin in each staple reduced to -CH2-CH2-) [I-2162] | > 20 µM

target: T2, beta-catenin (in DLD1 TCF/LEF luciferase reporter cells) (UniProt P35222 1-781); assay: cell-based or functional assay
T2 sequence (looked up): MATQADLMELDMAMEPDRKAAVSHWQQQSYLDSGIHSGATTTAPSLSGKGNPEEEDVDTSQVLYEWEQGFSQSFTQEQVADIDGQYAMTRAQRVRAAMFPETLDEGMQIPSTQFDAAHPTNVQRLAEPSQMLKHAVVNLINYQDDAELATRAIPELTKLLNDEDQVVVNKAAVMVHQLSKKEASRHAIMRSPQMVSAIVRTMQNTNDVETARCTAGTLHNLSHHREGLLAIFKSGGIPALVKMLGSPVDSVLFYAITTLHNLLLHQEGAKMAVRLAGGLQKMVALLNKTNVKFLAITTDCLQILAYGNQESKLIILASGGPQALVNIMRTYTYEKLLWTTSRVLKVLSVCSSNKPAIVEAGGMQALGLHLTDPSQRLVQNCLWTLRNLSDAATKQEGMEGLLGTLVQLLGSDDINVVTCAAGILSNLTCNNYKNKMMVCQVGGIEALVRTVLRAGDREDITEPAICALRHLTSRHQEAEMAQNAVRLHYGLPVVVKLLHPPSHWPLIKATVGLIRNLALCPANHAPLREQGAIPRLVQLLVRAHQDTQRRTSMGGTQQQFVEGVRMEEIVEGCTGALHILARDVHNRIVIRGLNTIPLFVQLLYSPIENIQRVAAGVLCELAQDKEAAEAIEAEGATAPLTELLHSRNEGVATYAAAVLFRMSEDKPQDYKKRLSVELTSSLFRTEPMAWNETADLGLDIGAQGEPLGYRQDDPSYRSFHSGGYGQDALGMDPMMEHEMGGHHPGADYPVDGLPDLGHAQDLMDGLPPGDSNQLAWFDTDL

Row | Binder | DLD1 4% Abs IC50
4 | [αAllylPro]D[tBuAla][B5]D[Phe(3-COOH)]AAFL[PyrS2][Phe(2-Cl)][Bta]S-NH2 (staple 1-4, 4-11) [I-1333] | 1.2 µM
5 | [αAllylPro]D[tBuAla][B5(4)]D[Phe(3-COOH)]AAFL[PyrS2(4)][2F3MeF][Bta]Q-NH2 (staple 1-4, 4-11; not fully specified; reading uncertain) [I-1335] | 0.9 µM
6 | [αAllylPro]D[tBuAla][B5(4)]D[Phe(3-COOH)]AAFL[PyrS2″][Phe(2-Cl)][Bta]Q-NH2 (staple 1-4, 4-11) [I-1332] | 0.9 µM

target: T3, beta-catenin in DLD1 TCF/LEF reporter cells (UniProt P35222 1-781); assay: cell-based or functional assay
T3 sequence (looked up): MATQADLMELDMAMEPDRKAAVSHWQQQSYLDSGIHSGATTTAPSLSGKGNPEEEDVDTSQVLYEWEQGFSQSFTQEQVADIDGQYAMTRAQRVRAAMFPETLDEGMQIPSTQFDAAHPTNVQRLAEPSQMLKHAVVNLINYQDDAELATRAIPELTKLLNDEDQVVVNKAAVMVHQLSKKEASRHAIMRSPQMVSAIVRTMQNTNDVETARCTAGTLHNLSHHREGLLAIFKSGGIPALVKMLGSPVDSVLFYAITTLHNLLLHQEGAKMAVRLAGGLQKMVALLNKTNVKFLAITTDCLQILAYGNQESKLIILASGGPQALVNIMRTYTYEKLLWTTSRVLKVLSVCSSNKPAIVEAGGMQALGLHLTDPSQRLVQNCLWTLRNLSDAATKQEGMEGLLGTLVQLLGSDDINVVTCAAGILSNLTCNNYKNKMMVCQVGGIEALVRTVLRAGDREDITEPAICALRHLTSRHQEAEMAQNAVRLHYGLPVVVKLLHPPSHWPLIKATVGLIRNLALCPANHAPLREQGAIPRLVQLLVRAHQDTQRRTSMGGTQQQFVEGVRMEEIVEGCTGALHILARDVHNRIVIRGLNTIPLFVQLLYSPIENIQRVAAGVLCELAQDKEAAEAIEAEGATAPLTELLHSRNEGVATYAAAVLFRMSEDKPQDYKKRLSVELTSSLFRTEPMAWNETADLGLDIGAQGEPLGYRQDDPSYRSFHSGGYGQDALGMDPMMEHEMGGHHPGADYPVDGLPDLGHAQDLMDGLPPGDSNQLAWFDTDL

Row | Binder | DLD1 reporter assay Abs IC50
7 | Ac-[αAllylPro]D[tBuAla][B5(4)]DDAAFT[PyrS2″][Phe(2-Cl)][Bta][Leu(ol)] (staple 1-4, 4-11) [I-1247] | > 20 µM
8 | Ac-[αAllylPro]D[tBuAla][B5(4)]DDAAFT[PyrS2″][Phe(2-Cl)][Bta]-Alaol (staple 1-4, 4-11) [I-1246] | 15.9 µM

target: T4, B-cat-Halo (UniProt P35222 1-781); assay: cell-based or functional assay
T4 sequence (looked up): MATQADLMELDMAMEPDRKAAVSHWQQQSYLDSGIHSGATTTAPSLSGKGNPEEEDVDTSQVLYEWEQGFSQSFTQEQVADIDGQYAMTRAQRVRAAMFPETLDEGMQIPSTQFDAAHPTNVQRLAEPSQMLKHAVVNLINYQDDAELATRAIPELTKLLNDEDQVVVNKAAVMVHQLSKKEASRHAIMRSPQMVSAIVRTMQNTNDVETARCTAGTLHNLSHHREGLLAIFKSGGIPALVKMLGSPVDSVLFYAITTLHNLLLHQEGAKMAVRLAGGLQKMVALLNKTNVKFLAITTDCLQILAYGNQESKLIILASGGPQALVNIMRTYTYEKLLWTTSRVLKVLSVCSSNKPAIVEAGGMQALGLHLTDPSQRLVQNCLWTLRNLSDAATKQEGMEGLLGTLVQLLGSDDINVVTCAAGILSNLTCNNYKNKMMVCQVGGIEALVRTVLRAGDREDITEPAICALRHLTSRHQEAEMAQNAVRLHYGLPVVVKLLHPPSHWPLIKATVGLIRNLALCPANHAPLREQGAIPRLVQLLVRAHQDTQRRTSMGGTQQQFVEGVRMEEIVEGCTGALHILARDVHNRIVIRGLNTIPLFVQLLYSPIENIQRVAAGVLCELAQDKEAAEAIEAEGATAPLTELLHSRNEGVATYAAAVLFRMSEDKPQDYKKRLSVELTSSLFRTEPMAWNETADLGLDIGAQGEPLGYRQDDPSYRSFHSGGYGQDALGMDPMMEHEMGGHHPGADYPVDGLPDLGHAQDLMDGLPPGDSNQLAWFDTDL

Row | Binder | NanoBRET Abs IC50
9 | Ac-[αAllylPro]D[tBuAla][B5(4)]DDAAFT[PyrS2″][Phe(2-Cl)][Bta][Leu(ol)] (staple 1-4, 4-11) [I-1247] | > 20 µM
10 | Ac-[αAllylPro]D[tBuAla][B5(4)]DDAAFT[PyrS2″][Phe(2-Cl)][Bta]-Alaol (staple 1-4, 4-11) [I-1246] | 24.3 µM
